± gives the standard error. Fewer inactive variants are shown than the library holds.

Data on 13 variants can be found in the supplement of paper PMC7125110.

B1: glmS ribozyme (parent)
chain: AUAAAAGCGCCAGAACUACAGAAAUGUAGUUGACGAGGAGGAGGUUUAUCGAAUUUUCGGCGGAUGCCUCCAAA

What all share (settings): with glucosamine-6-phosphate
In data set [1] the parent is B1. As to the kind of experiment: self-cleavage kobs at 40 uM GlcN6P; higher = faster cleavage; RNA array. The gist of the method:
(§1)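 Barcoded glmS ribozyme variants on sequenced MiSeq chips were transcribed in situ by E. coli RNA polymerase and tracked through a hybridised Cy3 probe at 37 °C. Glucosamine-6-phosphate (40 μM to 10 mM) in HEPES/KCl/Mg(OAc)2 buffer was flowed in, and tiles were imaged over ~14 h. Signals were normalised to baseline and to non-cleaving reference variants; per-tile medians were fit to one- or two-exponential decays to give kobs. kcat and KM came from weighted Michaelis–Menten fits across concentrations.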

Variants of B1 are the subject of data set [2]. Put plainly: self-cleavage kobs at 10000 uM GlcN6P; higher = faster cleavage; RNA array. The gist of the method: as §1
In data set [3] the parent is B1. Put plainly: self-cleavage kobs at 640 uM GlcN6P; higher = faster cleavage; RNA array. The gist of the method:
as §1

In data set [4] the parent is B1. Put plainly: self-cleavage kobs at 2500 uM GlcN6P; higher = faster cleavage; RNA array. The gist of the method:
as §1

In data set [5] the parent is B1. As to the kind of experiment: self-cleavage kobs at 160 uM GlcN6P; higher = faster cleavage; RNA array. The gist of the method:
as §1

On to AUAAAAGCGCCAGAACUACAGAAAUGUAGUUGACGAGGAGGAGGUUUGUCGAGUUUUCGGCGGAUGCGUCCAAA, for which the “self-cleavage kobs at 40 uM GlcN6P” value with glucosamine-6-phosphate [1] worked out at 6.75e-05 ± 2.2e-05 s⁻¹. Moreover, in the data set with glucosamine-6-phosphate [2], the “self-cleavage kobs at 10000 uM GlcN6P” value stood at 5.82e-05 ± 1.7e-05 s⁻¹.
With AUAAAGGCGCCAGAACUACAGAAAUGUAGUUGGCUAGGAGGAGGUUUAUCGAAUUUUCGGCGGAUGCGUUCAAA, the “self-cleavage kobs at 40 uM GlcN6P” value with glucosamine-6-phosphate [1] is 6.36e-05 ± 1.8e-05 s⁻¹. The “self-cleavage kobs at 10000 uM GlcN6P” value in the data set with glucosamine-6-phosphate [2] is 0.000167 ± 3.1e-05 s⁻¹.
Turning to AUAAAAGCGCCAGAAAUACAGAAAUGUAGUUGACGAGGAGGAGGUUUGUCGAAUUUUCGGCGGAUGCCUCCAAA, the “self-cleavage kobs at 40 uM GlcN6P” value with glucosamine-6-phosphate [1] is below 1e-05 s⁻¹. The “self-cleavage kobs at 640 uM GlcN6P” value with glucosamine-6-phosphate [3] was below 1e-05 s⁻¹. Besides, in the data set with glucosamine-6-phosphate [4], the “self-cleavage kobs at 2500 uM GlcN6P” value was below 1e-05 s⁻¹. Also, the “self-cleavage kobs at 10000 uM GlcN6P” value in the data set with glucosamine-6-phosphate [2] is below 1e-05 s⁻¹.
Turning to AUAAAAGCGCCAGCACUACAGAAAUGUAGUUGACGAGGAGGAGGUUUAUCGCAUUUUCGGCGGAUGCCUCCAAA, the “self-cleavage kobs at 40 uM GlcN6P” value in the data set with glucosamine-6-phosphate [1] was below 1e-05 s⁻¹. In the data set with glucosamine-6-phosphate [5], the “self-cleavage kobs at 160 uM GlcN6P” value is below 1e-05 s⁻¹. Besides, the “self-cleavage kobs at 640 uM GlcN6P” value with glucosamine-6-phosphate [3] is below 1e-05 s⁻¹. The “self-cleavage kobs at 10000 uM GlcN6P” value with glucosamine-6-phosphate [2] was below 1e-05 s⁻¹.
With AUAAAAGCGGCAGAACUACAGAAAUGUAGUUGACGAGGAGGAGGUUCAUCGAACUUUCGGCGGAUGCCUCCAAA, in the data set with glucosamine-6-phosphate [1], the “self-cleavage kobs at 40 uM GlcN6P” value was below 1e-05 s⁻¹. In addition, in the data set with glucosamine-6-phosphate [4], the “self-cleavage kobs at 2500 uM GlcN6P” value was below 1e-05 s⁻¹.
For AUAAAAGCGCCAGAACUACAGAAAUGUAGUUGACGAGGAGUAGAUUUAUCGAAUUUUCGGCGGAUGCCUCCAAA, the “self-cleavage kobs at 40 uM GlcN6P” value with glucosamine-6-phosphate [1] is below 1e-05 s⁻¹. Further, the “self-cleavage kobs at 160 uM GlcN6P” value with glucosamine-6-phosphate [5] is below 1e-05 s⁻¹. The “self-cleavage kobs at 640 uM GlcN6P” value in the data set with glucosamine-6-phosphate [3] was below 1e-05 s⁻¹. Also, the “self-cleavage kobs at 2500 uM GlcN6P” value with glucosamine-6-phosphate [4] was below 1e-05 s⁻¹. In the data set with glucosamine-6-phosphate [2], the “self-cleavage kobs at 10000 uM GlcN6P” value was below 1e-05 s⁻¹.
With AUAAAGGCGCCAGAACUACAGAAAUGUAGUUGACGAGGAGGUGGUUUAUCGAAUUUUUGGCGGAUGCCUCCAAA, the “self-cleavage kobs at 40 uM GlcN6P” value with glucosamine-6-phosphate [1] is below 1e-05 s⁻¹.
Regarding AUAAAAGCGCCAGAACUACAGAAAUGUAGUUGACGAUGAUGAGGUGUAUCGAACUUUCGGCGGAUGCCUCCAAA, the “self-cleavage kobs at 40 uM GlcN6P” value with glucosamine-6-phosphate [1] is below 1e-05 s⁻¹. Also, in the data set with glucosamine-6-phosphate [5], the “self-cleavage kobs at 160 uM GlcN6P” value was below 1e-05 s⁻¹. Further, the “self-cleavage kobs at 640 uM GlcN6P” value with glucosamine-6-phosphate [3] is below 1e-05 s⁻¹. For the same variant, in the data set with glucosamine-6-phosphate [4], the “self-cleavage kobs at 2500 uM GlcN6P” value was below 1e-05 s⁻¹. Moreover, in the data set with glucosamine-6-phosphate [2], the “self-cleavage kobs at 10000 uM GlcN6P” value is below 1e-05 s⁻¹.
For the variant AUAAAAACGCCAGAACUACAGAAAUGUAGUUGACGAGGAGGAGGUUUAUCGAAUUUUGGGCGGAUGCCUCCAAA, the “self-cleavage kobs at 40 uM GlcN6P” value with glucosamine-6-phosphate [1] is below 1e-05 s⁻¹. The “self-cleavage kobs at 160 uM GlcN6P” value with glucosamine-6-phosphate [5] was below 1e-05 s⁻¹. Besides, in the data set with glucosamine-6-phosphate [3], the “self-cleavage kobs at 640 uM GlcN6P” value is below 1e-05 s⁻¹.
Turning to AUAAAAGCGCCUGAACUACAGAAAUGUAGUUGACGAGGAAGAGGUUUAUCGAAUUUUCGGCGCAUGCCUCCAAA, the “self-cleavage kobs at 40 uM GlcN6P” value with glucosamine-6-phosphate [1] was below 1e-05 s⁻¹.
On to AUAAAAGCGCCAGAUCUACAGAAAUGUAGUUGACGAGCAGGAGGUUUAUCGAAUUUUCGGCGGAUUUCUCCAAA, for which the “self-cleavage kobs at 40 uM GlcN6P” value in the data set with glucosamine-6-phosphate [1] was below 1e-05 s⁻¹. Moreover, the “self-cleavage kobs at 10000 uM GlcN6P” value with glucosamine-6-phosphate [2] is below 1e-05 s⁻¹.
Take AUAAAAGCGCCGGAACUACAGAAAUGUAGUUGACGAGGAGGAGGUUUAUCGAAUUUUCGCCGGAUGCCUCCAAA: the “self-cleavage kobs at 40 uM GlcN6P” value with glucosamine-6-phosphate [1] is below 1e-05 s⁻¹. The “self-cleavage kobs at 160 uM GlcN6P” value with glucosamine-6-phosphate [5] is below 1e-05 s⁻¹. Besides, the “self-cleavage kobs at 640 uM GlcN6P” value with glucosamine-6-phosphate [3] is below 1e-05 s⁻¹. Further, the “self-cleavage kobs at 2500 uM GlcN6P” value with glucosamine-6-phosphate [4] was below 1e-05 s⁻¹. For the same variant, the “self-cleavage kobs at 10000 uM GlcN6P” value in the data set with glucosamine-6-phosphate [2] is below 1e-05 s⁻¹.
Regarding AUAAAAGCGCUAGAACUACAGAAAUGUAGUUGACGAGGAGGCGGUUUAUCGAAUUUUCGGCGGAUGGCUCAAAA, in the data set with glucosamine-6-phosphate [1], the “self-cleavage kobs at 40 uM GlcN6P” value was below 1e-05 s⁻¹. Moreover, in the data set with glucosamine-6-phosphate [2], the “self-cleavage kobs at 10000 uM GlcN6P” value is below 1e-05 s⁻¹.
